# Results as given in paper PMC5362816.
# Molecular target: CaM-agarose (Sigma), P62157
# Test: pull-down; CaM-agarose (Sigma) incubated with HEK293 lysate expressing a V5-His-tagged TRP channel; 20 mM Tris-HCl pH 7.4, 150 mM NaCl, 1% NP-40, 4 °C; 1 mM Ca2+ (Fig. 2A) or 2 mM Ca2+ (Fig. 2B); blot with anti-V5
# Settings: remark: other sources report otherwise
row,Binder,relative binding to CaM (normalized by total input)
1,"TRPV2 (V5-His tagged), Q9WUD2 1-761 (natural protein, here or on the partner: coupled to agarose) MTSASSPPAFRLETSDGDEEGNAEVNKGKQEPPPMESPFQREDRNSSPQIKVNLNFIKRPPKNTSAPSQQEPDRFDRDRLFSVVSRGVPEELTGLLEYLRWNSKYLTDSAYTEGSTGKTCLMKAVLNLQDGVNACIMPLLQIDKDSGNPKLLVNAQCTDEFYQGHSALHIAIEKRSLQCVKLLVENGADVHLRACGRFFQKHQGTCFYFGELPLSLAACTKQWDVVTYLLENPHQPASLEATDSLGNTVLHALVMIADNSPENSALVIHMYDGLLQMGARLCPTVQLEEISNHQGLTPLKLAAKEGKIEIFRHILQREFSGPYQPLSRKFTEWCYGPVRVSLYDLSSVDSWEKNSVLEIIAFHCKSPNRHRMVVLEPLNKLLQEKWDRLVSRFFFNFACYLVYMFIFTVVAYHQPSLDQPAIPSSKATFGESMLLLGHILILLGGIYLLLGQLWYFWRRRLFIWISFMDSYFEILFLLQALLTVLSQVLRFMETEWYLPLLVLSLVLGWLNLLYYTRGFQHTGIYSVMIQKVILRDLLRFLLVYLVFLFGFAVALVSLSREARSPKAPEDNNSTVTEQPTVGQEEEPAPYRSILDASLELFKFTIGMGELAFQEQLRFRGVVLLLLLAYVLLTYVLLLNMLIALMSETVNHVADNSWSIWKLQKAISVLEMENGYWWCRRKKHREGRLLKVGTRGDGTPDERWCFRVEEVNWAAWEKTLPTLSEDPSGPGITGNKKNPTSKPGKNSASEEDHLPLQVLQSP",0.8
2,"TRPM8 (V5-His tagged), Q8R455 1-1104 (natural protein, here or on the partner: coupled to agarose) MSFEGARLSMRSRRNGTLGSTRTLYSSVSRSTDVSYSESDLVNFIQANFKKRECVFFTRDSKAMESICKCGYAQSQHIEGTQINQNEKWNYKKHTKEFPTDAFGDIQFETLGKKGKYLRLSCDTDSETLYELLTQHWHLKTPNLVISVTGGAKNFALKPRMRKIFSRLIYIAQSKGAWILTGGTHYGLMKYIGEVVRDNTISRNSEENIVAIGIAAWGMVSNRDTLIRNCDDEGHFSAQYIMDDFMRDPLYILDNNHTHLLLVDNGCHGHPTVEAKLRNQLEKYISERTSQDSNYGGKIPIVCFAQGGGRETLKAINTSVKSKIPCVVVEGSGQIADVIASLVEVEDVLTSSMVKEKLVRFLPRTVSRLPEEEIESWIKWLKEILESPHLLTVIKMEEAGDEVVSSAISYALYKAFSTNEQDKDNWNGQLKLLLEWNQLDLASDEIFTNDRRWESADLQEVMFTALIKDRPKFVRLFLENGLNLQKFLTNEVLTELFSTHFSTLVYRNLQIAKNSYNDALLTFVWKLVANFRRSFWKEDRSSREDLDVELHDASLTTRHPLQALFIWAILQNKKELSKVIWEQTKGCTLAALGASKLLKTLAKVKNDINAAGESEELANEYETRAVELFTECYSSDEDLAEQLLVYSCEAWGGSNCLELAVEATDQHFIAQPGVQNFLSKQWYGEISRDTKNWKIILCLFIIPLVGCGLVSFRKKPIDKHKKLLWYYVAFFTSPFVVFSWNVVFYIAFLLLFAYVLLMDFHSVPHTPELILYALVFVLFCDEVRQWYMNGVNYFTDLWNVMDTLGLFYFIAGIVFRLHSSNKSSLYSGRVIFCLDYIIFTLRLIHIFTVSRNLGPKIIMLQRMLIDVFFFLFLFAVWMVAFGVARQGILRQNEQRWRWIFRSVIYEPYLAMFGQVPSDVDSTTYDFSHCTFSGNESKPLCVELDEYNLPRFPEWITIPLVCIYMLSTNILLVNLLVAMFGYTVGIVQENNDQVWKFQRYFLVQEYCNRLNIPFPFVVFAYFYMVVKKCFKCCCKEKNTESSACCFRNEDNETLAWEGVMKENYLVKINTKANDNAEEMRHRFRQLDTKLNDLKGLLKEIANKIK",0.9
